Measured values: the Immune Epitope Database (IEDB)

How the values were obtained:
HLA-A*02:01 [1] = test: IEDB peptide-MHC binding, purified MHC/competitive/radioactivity; filed as Kd, often an IC50 or EC50 that approximates it; ≥ and ≤ were set here for values at or beyond the usual limits of such assays; details: source organism: Homo sapiens
HLA-A*02:01 [2] = test: IEDB peptide-MHC binding, purified MHC/competitive/radioactivity; ≥ and ≤ were set here for values at or beyond the usual limits of such assays; details: source organism: Homo sapiens

Sequence	Kd (HLA-A*02:01 [1])	IC50 (HLA-A*02:01 [2])
MLARACQHA	1.64 µM	–
TILIGVFVV	4.54 µM	–
SLCFLGAIA	≥ 10 µM	–
VLETAVGLL	–	0.238 µM
LLCLVVFFL	–	0.676 µM
FLSLGLVSL	–	0.206 µM
LVLMAVLYV	1.21 µM	–
ILLLEAGAL	4.76 µM	–
QLGLAANQT	≥ 50 µM	–
ALVARAAVL	11.1 µM	–
YLILIMCNS	6.25 µM	–
LLVSGSNVL	1.41 µM	–
FLAMLVLMA	2.08 µM	–
SLVENALVV	–	0.429 µM
DLLVSGSNV	≥ 50 µM	–
SLNSTPTAI	–	0.633 µM
SVIDPLIYA	1.19 µM	–
NGMLIMCNA	16.7 µM	–
ALIICNAII	–	0.893 µM
GLKGAVTLT	≥ 50 µM	–
TILLGVFIF	4.54 µM	–
TLPRARRRV	≥ 25 µM	–
ELRRTLKEV	≥ 50 µM	–
GLVSLVENA	–	0.532 µM
YLVLINCNS	2.17 µM	–
ILLGIFFLC	5.56 µM	–
AVMDPFIYA	–	0.758 µM
GLFLSLGLV	–	0.535 µM
GLAANQTGA	2.38 µM	–
TILLGIFFL	–	0.455 µM
